Assay results from publication PMC3899036, “Subunit Positioning and Stator Filament Stiffness in Regulation and Power Transmission in the V1 Motor of the Manduca sexta V-ATPase^☆” (Journal of Molecular Biology, 2014).
One block for each molecule: values may come before it.

Legend:
[1] = molecular target: recombinant His6-tagged V-ATPase subunit C (Manduca sexta) (UniProt Q9U5N1); assay: SEC; V1 incubated with C-His6, Superose-6 column, 20 mM Tris-HCl, 100 mM NaCl, 10 mM KCl, 2 mM 2-mercaptoethanol, pH 8.0, 0.25 ml/min; fractions on SDS-PAGE with densitometry; apparent stoichiometry
[2] = molecular target: T1, Manduca sexta V-ATPase subunit B (Manduca sexta (tobacco hornworm), UniProt P31401 1-494); assay: cryo-EM structure; V1 mixed with recombinant C for 1 h at 4 °C (1:5 V1:C molar ratio), Lacey grids, plunge-frozen; 20 Å reconstruction of V1(+C), homologous crystal structures fitted; details: both partners purified
T1 construct: V-ATPase subunit B, Manduca sexta; 56 kDa on SDS-PAGE; Seen as part of the V1 complex in the cryo-EM reconstruction; also called B subunits; source: endogenous, within V1 purified from Manduca sexta
T1 sequence (P31401 whole entry): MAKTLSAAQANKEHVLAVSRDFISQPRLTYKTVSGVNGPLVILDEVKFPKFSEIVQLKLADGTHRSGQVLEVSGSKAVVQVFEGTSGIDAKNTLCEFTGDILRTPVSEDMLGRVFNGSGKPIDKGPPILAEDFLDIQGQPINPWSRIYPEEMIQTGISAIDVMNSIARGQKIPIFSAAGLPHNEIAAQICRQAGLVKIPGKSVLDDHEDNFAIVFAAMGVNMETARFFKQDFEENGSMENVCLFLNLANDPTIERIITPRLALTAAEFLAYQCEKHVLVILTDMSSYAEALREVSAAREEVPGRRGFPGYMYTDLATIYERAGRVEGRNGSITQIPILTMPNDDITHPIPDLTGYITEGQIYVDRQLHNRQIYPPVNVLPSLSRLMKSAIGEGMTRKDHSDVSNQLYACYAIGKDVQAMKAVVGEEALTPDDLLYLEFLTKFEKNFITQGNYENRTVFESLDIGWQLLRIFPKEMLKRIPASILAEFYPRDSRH

Sequence of recombinant His6-tagged V-ATPase subunit C (Manduca sexta) (Q9U5N1 whole entry): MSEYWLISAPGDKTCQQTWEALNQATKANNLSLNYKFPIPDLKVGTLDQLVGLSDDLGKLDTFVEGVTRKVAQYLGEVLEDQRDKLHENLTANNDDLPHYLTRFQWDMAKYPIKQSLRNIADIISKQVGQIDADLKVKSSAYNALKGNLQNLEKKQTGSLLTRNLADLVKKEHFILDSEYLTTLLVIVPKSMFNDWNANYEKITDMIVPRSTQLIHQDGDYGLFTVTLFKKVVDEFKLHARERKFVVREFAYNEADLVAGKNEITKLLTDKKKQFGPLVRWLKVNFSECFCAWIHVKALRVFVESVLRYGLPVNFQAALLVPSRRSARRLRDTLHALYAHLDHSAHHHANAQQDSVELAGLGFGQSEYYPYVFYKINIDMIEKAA

stoichiometry N (C per V1 (1 per H, 1 per 3 A)) [1]: 1
Molecule: Manduca sexta V-ATPase V1 domain (deactivated, washed with 25% methanol to remove residual subunit C) (complex)

binding result [2]: binds
B1: Manduca sexta V-ATPase subunit E (natural protein, Manduca sexta (tobacco hornworm), UniProt P31402 1-226, looked up)
chain: MALSDADVQKQIKHMMAFIEQEANEKAEEIDAKAEEEFNIEKGRLVQQQRLKIMEYYEKKEKQVELQKKIQSSNMLNQARLKVLKVREDHVRNVLDEARKRLAEVPKDIKLYSDLLVTLIVQALFQLVEPTVTLRVRQADKALVESLLGRAQQDYKAKIKKDVVLKIDNENFLPPDTCGGIELIAAKGRIKISNTLESRLELIAQQLLPEIRNALFGRNPNRKFTD
notes: V-ATPase subunit E, Manduca sexta; 26 kDa on SDS-PAGE; Seen as part of the V1 complex in the cryo-EM reconstruction; also called subunit E of the E/G stator filaments S1-S3; source: endogenous, within V1 purified from Manduca sexta
